T1: FcγRIIb (UniProt P31994 46-217, limits assumed)
T1 sequence (looked up): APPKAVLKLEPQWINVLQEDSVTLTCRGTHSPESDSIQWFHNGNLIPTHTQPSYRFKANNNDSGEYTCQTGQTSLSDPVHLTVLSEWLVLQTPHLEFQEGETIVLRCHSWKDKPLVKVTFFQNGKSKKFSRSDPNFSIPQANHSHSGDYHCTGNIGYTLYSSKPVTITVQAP


How the values were obtained:
[1] = target: T2, FcγRI (UniProt P12314 16-288); assay: BLI (Octet)
T2 construct: also called CD64
Description: (§1) Binding of complement-preferential stradomers or parent stradomer G045c to FcγRI, FcγRIIb, FcγRIIIa, FcγRIIa, or FcRn was assessed. RU values of dissociation were measured by biolayer interferometry using a ForteBio Octet instrument. His-tagged receptor proteins were bound to the sensor tip in 1× kinetic analysis buffer from ForteBio after which the on rate of the receptor/protein was measured by transferring the sensor tip to a 1× kinetics buffer containing the purified stradomer of choice. Off rate was measured by transferring the sensor tip to a 1× kinetics buffer, and RU value was calculated from the measured maximum binding using the ForteBio software. Biolayer interferometry detects the binding between a ligand immobilized on the biosensor tip surface and an analyte in solution. When binding occurs it produces an increase in optical thickness at the biosensor tip, which results in a wavelength shift (detected as a response unit of “RU”). The maximum binding level (RU max) is the maximum possible amount of sample binding at equilibrium that saturates the amount of ligand on the sensor surface. The RU 300 is the residual sample binding after 300 seconds of dissociation and is useful to characterize the rate of dissociation of the test article from the test ligand.
(§2) For each stradomer in Tables 5-9, the level of canonical FcγR binding, complement C1q binding, and CDC inhibition were determined according to the methods described in Example 1.

[2] = target: T1, FcγRIIb; assay: BLI (Octet)
Description: as §1, §2

[3] = target: C1q (UniProt P02745 23-245; P02746 28-253; P02747 29-245); assay: cell-based or functional assay
Chain of C1q (P02745 23-245 limits assumed, chain 1 of 3): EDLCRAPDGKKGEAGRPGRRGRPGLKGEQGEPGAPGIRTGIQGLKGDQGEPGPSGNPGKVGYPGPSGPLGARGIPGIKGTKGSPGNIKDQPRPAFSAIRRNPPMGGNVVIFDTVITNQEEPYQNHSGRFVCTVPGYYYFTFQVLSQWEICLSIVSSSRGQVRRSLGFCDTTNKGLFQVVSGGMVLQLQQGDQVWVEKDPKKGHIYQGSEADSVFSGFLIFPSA
Chain of C1q (P02746 28-253 limits assumed, chain 2 of 3): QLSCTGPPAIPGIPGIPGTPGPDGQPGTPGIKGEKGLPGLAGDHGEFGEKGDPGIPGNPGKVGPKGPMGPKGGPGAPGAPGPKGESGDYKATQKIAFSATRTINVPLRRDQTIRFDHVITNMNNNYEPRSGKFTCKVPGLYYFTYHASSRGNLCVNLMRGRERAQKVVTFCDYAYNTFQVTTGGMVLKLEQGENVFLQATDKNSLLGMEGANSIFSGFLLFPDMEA
Chain of C1q (P02747 29-245 limits assumed, chain 3 of 3): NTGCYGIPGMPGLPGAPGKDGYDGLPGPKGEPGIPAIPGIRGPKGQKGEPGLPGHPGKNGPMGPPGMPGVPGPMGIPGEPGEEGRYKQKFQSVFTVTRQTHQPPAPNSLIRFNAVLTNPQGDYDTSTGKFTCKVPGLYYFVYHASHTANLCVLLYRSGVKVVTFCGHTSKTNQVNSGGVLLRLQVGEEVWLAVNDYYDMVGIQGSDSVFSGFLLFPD

T2 sequence (P12314 16-288 limits assumed): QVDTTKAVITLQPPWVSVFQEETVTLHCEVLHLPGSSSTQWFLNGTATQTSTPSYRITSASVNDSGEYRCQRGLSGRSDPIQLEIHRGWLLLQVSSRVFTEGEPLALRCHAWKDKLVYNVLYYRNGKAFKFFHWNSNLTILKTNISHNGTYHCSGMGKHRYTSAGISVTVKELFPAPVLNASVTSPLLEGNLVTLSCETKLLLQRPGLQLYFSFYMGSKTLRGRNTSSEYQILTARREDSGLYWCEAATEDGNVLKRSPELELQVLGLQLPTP

| Binder | binding result [1] | binding result [2] | CDC Inhibition (EC50, µg/mL) [3] |
| --- | --- | --- | --- |
| G1130 (Fc fusion, G045c background, E233P/G236N/S267K/H268F/S324T; leader 1-20 cleaved) EPKSCDKTHTCPPCPAPPLLNGPSVFLFPPKPKDTLMISRTPEVTCVVVDVKFEDPEVKFNWYVDGVEVHNAKTKPREEQYNSTYRVVSVLTVLHQDWLNGKEYKCKVTNKALPAPIEKTISKAKGQPREPQVYTLPPSRDELTKNQVSLTCLVKGFYPSDIAVEWESNGQPENNYKTTPPVLDSDGSFFLYSKLTVDKSRWQQGNVFSCSVMHEALHNHYTQKSLSLSPGKERKCCVECPPCP | binds | binds |  |
| G1120 (Fc fusion, G045c background, E233P/G236R/S267Q/H268F/S324T; leader 1-20 cleaved) EPKSCDKTHTCPPCPAPPLLRGPSVFLFPPKPKDTLMISRTPEVTCVVVDVQFEDPEVKFNWYVDGVEVHNAKTKPREEQYNSTYRVVSVLTVLHQDWLNGKEYKCKVTNKALPAPIEKTISKAKGQPREPQVYTLPPSRDELTKNQVSLTCLVKGFYPSDIAVEWESNGQPENNYKTTPPVLDSDGSFFLYSKLTVDKSRWQQGNVFSCSVMHEALHNHYTQKSLSLSPGKERKCCVECPPCP | binds |  |  |
| G1124 (Fc fusion, G045c background, E233P/G236K/S267K/H268F/S324T; leader 1-20 cleaved) EPKSCDKTHTCPPCPAPPLLKGPSVFLFPPKPKDTLMISRTPEVTCVVVDVKFEDPEVKFNWYVDGVEVHNAKTKPREEQYNSTYRVVSVLTVLHQDWLNGKEYKCKVTNKALPAPIEKTISKAKGQPREPQVYTLPPSRDELTKNQVSLTCLVKGFYPSDIAVEWESNGQPENNYKTTPPVLDSDGSFFLYSKLTVDKSRWQQGNVFSCSVMHEALHNHYTQKSLSLSPGKERKCCVECPPCP | binds | binds |  |
| G1106 (Fc fusion, G045c background, E233P/G236K/H268F/S324T; leader 1-20 cleaved) EPKSCDKTHTCPPCPAPPLLKGPSVFLFPPKPKDTLMISRTPEVTCVVVDVSFEDPEVKFNWYVDGVEVHNAKTKPREEQYNSTYRVVSVLTVLHQDWLNGKEYKCKVTNKALPAPIEKTISKAKGQPREPQVYTLPPSRDELTKNQVSLTCLVKGFYPSDIAVEWESNGQPENNYKTTPPVLDSDGSFFLYSKLTVDKSRWQQGNVFSCSVMHEALHNHYTQKSLSLSPGKERKCCVECPPCP | binds |  |  |
| G1128 (Fc fusion, G045c background, E233P/G236K/S267N/H268F/S324T; leader 1-20 cleaved) EPKSCDKTHTCPPCPAPPLLKGPSVFLFPPKPKDTLMISRTPEVTCVVVDVNFEDPEVKFNWYVDGVEVHNAKTKPREEQYNSTYRVVSVLTVLHQDWLNGKEYKCKVTNKALPAPIEKTISKAKGQPREPQVYTLPPSRDELTKNQVSLTCLVKGFYPSDIAVEWESNGQPENNYKTTPPVLDSDGSFFLYSKLTVDKSRWQQGNVFSCSVMHEALHNHYTQKSLSLSPGKERKCCVECPPCP | binds | binds |  |
| G1075 (Fc fusion, G045c background, S267Q/H268F/S324T/N297A; leader 1-20 cleaved) EPKSCDKTHTCPPCPAPELLGGPSVFLFPPKPKDTLMISRTPEVTCVVVDVQFEDPEVKFNWYVDGVEVHNAKTKPREEQYASTYRVVSVLTVLHQDWLNGKEYKCKVTNKALPAPIEKTISKAKGQPREPQVYTLPPSRDELTKNQVSLTCLVKGFYPSDIAVEWESNGQPENNYKTTPPVLDSDGSFFLYSKLTVDKSRWQQGNVFSCSVMHEALHNHYTQKSLSLSPGKERKCCVECPPCP | binds |  | 15 µg/mL |
| G1069 (Fc fusion, G045c background, H268F/S324T/N297A; leader 1-20 cleaved) EPKSCDKTHTCPPCPAPELLGGPSVFLFPPKPKDTLMISRTPEVTCVVVDVSFEDPEVKFNWYVDGVEVHNAKTKPREEQYASTYRVVSVLTVLHQDWLNGKEYKCKVTNKALPAPIEKTISKAKGQPREPQVYTLPPSRDELTKNQVSLTCLVKGFYPSDIAVEWESNGQPENNYKTTPPVLDSDGSFFLYSKLTVDKSRWQQGNVFSCSVMHEALHNHYTQKSLSLSPGKERKCCVECPPCP | binds |  |  |
| G1118 (Fc fusion, G045c background, E233P/G236Q/S267Q/H268F/S324T; leader 1-20 cleaved) EPKSCDKTHTCPPCPAPPLLQGPSVFLFPPKPKDTLMISRTPEVTCVVVDVQFEDPEVKFNWYVDGVEVHNAKTKPREEQYNSTYRVVSVLTVLHQDWLNGKEYKCKVTNKALPAPIEKTISKAKGQPREPQVYTLPPSRDELTKNQVSLTCLVKGFYPSDIAVEWESNGQPENNYKTTPPVLDSDGSFFLYSKLTVDKSRWQQGNVFSCSVMHEALHNHYTQKSLSLSPGKERKCCVECPPCP | binds | binds |  |

The remaining lines, values ahead:

| binding result [1] | binding result [2] | CDC Inhibition (EC50, µg/mL) [3] | Binder |
| --- | --- | --- | --- |
| binds | binds |  | G1068 (Fc fusion, G045c background, S267E/H268F/S324T/T299A; leader 1-20 cleaved) EPKSCDKTHTCPPCPAPELLGGPSVFLFPPKPKDTLMISRTPEVTCVVVDVEFEDPEVKFNWYVDGVEVHNAKTKPREEQYNSAYRVVSVLTVLHQDWLNGKEYKCKVTNKALPAPIEKTISKAKGQPREPQVYTLPPSRDELTKNQVSLTCLVKGFYPSDIAVEWESNGQPENNYKTTPPVLDSDGSFFLYSKLTVDKSRWQQGNVFSCSVMHEALHNHYTQKSLSLSPGKERKCCVECPPCP |
| binds |  | 5 µg/mL | G1082 (Fc fusion, G045c background, E233P/G236H/H268F/S324T; leader 1-20 cleaved) EPKSCDKTHTCPPCPAPPLLHGPSVFLFPPKPKDTLMISRTPEVTCVVVDVSFEDPEVKFNWYVDGVEVHNAKTKPREEQYNSTYRVVSVLTVLHQDWLNGKEYKCKVTNKALPAPIEKTISKAKGQPREPQVYTLPPSRDELTKNQVSLTCLVKGFYPSDIAVEWESNGQPENNYKTTPPVLDSDGSFFLYSKLTVDKSRWQQGNVFSCSVMHEALHNHYTQKSLSLSPGKERKCCVECPPCP |
| binds |  |  | G1121 (Fc fusion, G045c background, E233P/G236D/S267K/H268F/S324T; leader 1-20 cleaved) EPKSCDKTHTCPPCPAPPLLDGPSVFLFPPKPKDTLMISRTPEVTCVVVDVKFEDPEVKFNWYVDGVEVHNAKTKPREEQYNSTYRVVSVLTVLHQDWLNGKEYKCKVTNKALPAPIEKTISKAKGQPREPQVYTLPPSRDELTKNQVSLTCLVKGFYPSDIAVEWESNGQPENNYKTTPPVLDSDGSFFLYSKLTVDKSRWQQGNVFSCSVMHEALHNHYTQKSLSLSPGKERKCCVECPPCP |
| binds | binds |  | G1074 (Fc fusion, G045c background, S267D/H268F/S324T/N297A; leader 1-20 cleaved) EPKSCDKTHTCPPCPAPELLGGPSVFLFPPKPKDTLMISRTPEVTCVVVDVDFEDPEVKFNWYVDGVEVHNAKTKPREEQYASTYRVVSVLTVLHQDWLNGKEYKCKVTNKALPAPIEKTISKAKGQPREPQVYTLPPSRDELTKNQVSLTCLVKGFYPSDIAVEWESNGQPENNYKTTPPVLDSDGSFFLYSKLTVDKSRWQQGNVFSCSVMHEALHNHYTQKSLSLSPGKERKCCVECPPCP |
| binds | binds |  | G1092 (Fc fusion, G045c background, S267D/H268F/S324T/T299A; leader 1-20 cleaved) EPKSCDKTHTCPPCPAPELLGGPSVFLFPPKPKDTLMISRTPEVTCVVVDVDFEDPEVKFNWYVDGVEVHNAKTKPREEQYNSAYRVVSVLTVLHQDWLNGKEYKCKVTNKALPAPIEKTISKAKGQPREPQVYTLPPSRDELTKNQVSLTCLVKGFYPSDIAVEWESNGQPENNYKTTPPVLDSDGSFFLYSKLTVDKSRWQQGNVFSCSVMHEALHNHYTQKSLSLSPGKERKCCVECPPCP |
| binds | binds |  | G1089 (Fc fusion, G045c background, E233P/G236R/H268F/S324T; leader 1-20 cleaved) EPKSCDKTHTCPPCPAPPLLRGPSVFLFPPKPKDTLMISRTPEVTCVVVDVSFEDPEVKFNWYVDGVEVHNAKTKPREEQYNSTYRVVSVLTVLHQDWLNGKEYKCKVTNKALPAPIEKTISKAKGQPREPQVYTLPPSRDELTKNQVSLTCLVKGFYPSDIAVEWESNGQPENNYKTTPPVLDSDGSFFLYSKLTVDKSRWQQGNVFSCSVMHEALHNHYTQKSLSLSPGKERKCCVECPPCP |
